Test results as given in paper PMC9482650, “Quantitative fragmentomics allow affinity mapping of interactomes” (Nature Communications, 2022).

What was measured:
Experiment in all cases: holdup assay
Design in all cases: key: below the threshold = too weak to quantify, mostly under pKd 3.1 to 4
LIN7A, O14910 = target: T1, LIN7A, O14910
T1 sequence (O14910 103-200, limits assumed, looked up): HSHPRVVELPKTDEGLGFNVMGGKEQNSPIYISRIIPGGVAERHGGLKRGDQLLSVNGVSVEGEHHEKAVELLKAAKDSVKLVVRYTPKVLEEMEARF

MAGI2_3, Q86UL8 = target: MAGI2_3, Q86UL8
MPP2, Q14168 = target: T2, MPP2, Q14168
T2 sequence (Q14168 180-250, limits assumed, looked up): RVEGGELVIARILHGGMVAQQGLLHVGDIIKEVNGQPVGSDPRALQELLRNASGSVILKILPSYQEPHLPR

GRID2IP_1, A4D2P6 = target: GRID2IP_1, A4D2P6
GRIP2_5, Q9C0E4 = target: GRIP2_5, Q9C0E4
Inadl_1, Q8NI35 = target: Inadl_1, Q8NI35
GRIP1_7, Q9Y3R0 = target: T3, GRIP1_7, Q9Y3R0
T3 sequence (Q9Y3R0 999-1096, limits assumed, looked up): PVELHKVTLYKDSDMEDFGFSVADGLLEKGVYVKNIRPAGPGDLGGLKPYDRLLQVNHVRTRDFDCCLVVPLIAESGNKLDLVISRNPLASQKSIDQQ

AHNAK1, Q09666 = target: AHNAK1, Q09666
PTPN3, P26045 = target: PTPN3, P26045
DLG2_3, Q15700 = target: DLG2_3, Q15700
FRMPD4, Q14CM0 = target: FRMPD4, Q14CM0
Inadl_10, Q8NI35 = target: Inadl_10, Q8NI35
SNTG2, Q9NY99 = target: T4, SNTG2, Q9NY99
T4 sequence (Q9NY99 68-166, limits assumed, looked up): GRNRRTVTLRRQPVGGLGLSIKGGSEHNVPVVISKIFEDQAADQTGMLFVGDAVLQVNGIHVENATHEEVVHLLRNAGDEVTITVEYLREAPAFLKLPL

GORASP2, Q9H8Y8 = target: GORASP2, Q9H8Y8
NHERF4_1, Q86UT5-2 = target: NHERF4_1, Q86UT5-2
TX1BP3, O14907 = target: T5, TX1BP3, O14907
T5 sequence (O14907 10-122, limits assumed, looked up): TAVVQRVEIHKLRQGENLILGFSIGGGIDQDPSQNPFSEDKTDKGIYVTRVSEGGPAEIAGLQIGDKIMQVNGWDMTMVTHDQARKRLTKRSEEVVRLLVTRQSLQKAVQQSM

DLG1_1, Q12959 = target: DLG1_1, Q12959
FRMPD2_2, Q68DX3 = target: FRMPD2_2, Q68DX3
PCLO, Q9Y6V0 = target: T6, PCLO, Q9Y6V0
T6 sequence (Q9Y6V0 4491-4600, limits assumed, looked up): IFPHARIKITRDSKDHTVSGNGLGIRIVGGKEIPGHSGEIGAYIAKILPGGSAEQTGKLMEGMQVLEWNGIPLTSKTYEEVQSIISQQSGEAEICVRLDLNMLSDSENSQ

GRASP, Q7Z6J2 = target: GRASP, Q7Z6J2
DLG4_2, P78352 = target: DLG4_2, P78352
GRIP1_3, Q9Y3R0 = target: T7, GRIP1_3, Q9Y3R0
T7 sequence (Q9Y3R0 247-346, limits assumed, looked up): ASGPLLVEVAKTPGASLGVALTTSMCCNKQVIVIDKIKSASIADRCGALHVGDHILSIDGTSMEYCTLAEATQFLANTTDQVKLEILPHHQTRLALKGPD

APBA1_2, Q02410 = target: T8, APBA1_2, Q02410
T8 sequence (Q02410 742-832, limits assumed, looked up): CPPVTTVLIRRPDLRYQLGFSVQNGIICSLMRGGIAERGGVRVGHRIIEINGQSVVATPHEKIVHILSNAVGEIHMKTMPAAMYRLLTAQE

FRMPD1, Q5SYB0 = target: T9, FRMPD1, Q5SYB0
T9 sequence (Q5SYB0 52-145, limits assumed, looked up): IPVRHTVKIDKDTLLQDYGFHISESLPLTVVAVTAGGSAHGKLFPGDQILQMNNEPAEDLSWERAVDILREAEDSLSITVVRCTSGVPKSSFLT

ARHGEF11, O15085 = target: T10, ARHGEF11, O15085
T10 sequence (O15085 42-136, limits assumed, looked up): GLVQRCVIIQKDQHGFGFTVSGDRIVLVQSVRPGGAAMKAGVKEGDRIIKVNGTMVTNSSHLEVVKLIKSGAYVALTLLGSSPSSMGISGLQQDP

LIN7B, Q9HAP6 = target: T11, LIN7B, Q9HAP6
T11 sequence (Q9HAP6 88-185, limits assumed, looked up): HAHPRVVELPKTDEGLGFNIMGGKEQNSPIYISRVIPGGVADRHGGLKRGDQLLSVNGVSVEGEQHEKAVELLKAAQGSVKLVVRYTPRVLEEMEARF

NHERF4_4, Q86UT5 = target: NHERF4_4, Q86UT5
[1] = plain residues with an end cap or a label only (N-terminal biotin on a linker: ttds)
[2] = plain residues with an end cap or a label only (N-terminal biotin on a linker: ahx)
[3] = plain residues with an end cap or a label only (N-terminal biotin on a linker: ado-ado)

Chain of GRASP, Q7Z6J2 (Q7Z6J2 96-193): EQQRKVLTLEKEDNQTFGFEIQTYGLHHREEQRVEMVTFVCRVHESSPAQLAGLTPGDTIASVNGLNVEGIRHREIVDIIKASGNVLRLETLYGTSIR
Chain of DLG4_2, P78352 (P78352 155-259): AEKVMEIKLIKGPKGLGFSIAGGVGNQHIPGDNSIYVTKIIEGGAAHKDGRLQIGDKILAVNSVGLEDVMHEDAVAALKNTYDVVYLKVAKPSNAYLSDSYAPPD
Chain of GRID2IP_1, A4D2P6 (A4D2P6 1-87): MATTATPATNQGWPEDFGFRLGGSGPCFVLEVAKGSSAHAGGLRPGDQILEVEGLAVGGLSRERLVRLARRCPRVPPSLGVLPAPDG
Chain of NHERF4_4, Q86UT5 (Q86UT5 464-550): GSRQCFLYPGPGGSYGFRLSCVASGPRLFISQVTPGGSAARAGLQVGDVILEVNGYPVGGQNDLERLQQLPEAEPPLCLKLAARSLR
Chain of FRMPD4, Q14CM0 (Q14CM0 67-160): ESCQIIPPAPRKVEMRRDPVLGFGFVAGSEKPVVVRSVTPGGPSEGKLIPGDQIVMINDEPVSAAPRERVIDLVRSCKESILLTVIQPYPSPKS
Chain of Inadl_1, Q8NI35 (Q8NI35 113-229): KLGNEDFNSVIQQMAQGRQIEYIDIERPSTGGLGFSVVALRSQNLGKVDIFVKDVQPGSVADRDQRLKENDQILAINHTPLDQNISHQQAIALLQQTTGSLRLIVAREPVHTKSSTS
Chain of Inadl_10, Q8NI35 (Q8NI35 1673-1763): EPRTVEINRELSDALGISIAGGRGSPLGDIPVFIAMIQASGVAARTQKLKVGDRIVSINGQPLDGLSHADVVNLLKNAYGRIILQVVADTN
Chain of MAGI2_3, Q86UL8 (Q86UL8 600-682): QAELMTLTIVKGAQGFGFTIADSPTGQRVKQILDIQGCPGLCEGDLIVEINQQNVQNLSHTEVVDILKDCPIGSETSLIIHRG
Chain of AHNAK1, Q09666 (Q09666 4-100): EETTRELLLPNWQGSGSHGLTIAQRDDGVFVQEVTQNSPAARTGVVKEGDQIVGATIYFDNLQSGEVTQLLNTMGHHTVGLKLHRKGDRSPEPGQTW
Chain of PTPN3, P26045 (P26045 505-587): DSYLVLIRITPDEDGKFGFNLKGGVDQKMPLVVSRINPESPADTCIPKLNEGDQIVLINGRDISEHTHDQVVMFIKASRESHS
Chain of GRIP2_5, Q9C0E4 (Q9C0E4 544-642): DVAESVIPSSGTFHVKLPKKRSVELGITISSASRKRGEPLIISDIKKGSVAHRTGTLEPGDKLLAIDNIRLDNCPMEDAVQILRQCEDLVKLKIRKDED
Chain of FRMPD2_2, Q68DX3 (Q68DX3 944-1038): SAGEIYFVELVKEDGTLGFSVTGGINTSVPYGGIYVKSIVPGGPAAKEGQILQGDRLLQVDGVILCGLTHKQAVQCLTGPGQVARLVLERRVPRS
Chain of NHERF4_1, Q86UT5-2 (Q86UT5 other isoform, or with tags, fused parts or gaps): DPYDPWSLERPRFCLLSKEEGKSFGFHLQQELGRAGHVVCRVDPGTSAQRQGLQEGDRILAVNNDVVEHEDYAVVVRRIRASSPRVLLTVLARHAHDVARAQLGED

B1: ARHGAP6, O43182 (peptide)
chain: NPDALPETLV
- pKd (LIN7A, O14910; [1]): 3.61
- pKd (MAGI2_3, Q86UL8; [1]): 3.89
- pKd (MPP2, Q14168; [1]): below the threshold
- pKd (GRID2IP_1, A4D2P6; [1]): below the threshold
- pKd (GRIP2_5, Q9C0E4; [1]): below the threshold
- pKd (Inadl_1, Q8NI35; [1]): below the threshold
- pKd (GRIP1_7, Q9Y3R0; [1]): 3.61
- pKd (AHNAK1, Q09666; [1]): below the threshold
- pKd (PTPN3, P26045; [1]): 4.44
- pKd (DLG2_3, Q15700; [1]): 4.01
- pKd (FRMPD4, Q14CM0; [1]): below the threshold
- pKd (Inadl_10, Q8NI35; [1]): below the threshold
- pKd (SNTG2, Q9NY99; [1]): 4.95
- pKd (GORASP2, Q9H8Y8; [1]): below the threshold
- pKd (NHERF4_1, Q86UT5-2; [1]): 3.6
- pKd (TX1BP3, O14907; [1]): below the threshold
- pKd (DLG1_1, Q12959; [1]): 4.39
- pKd (FRMPD2_2, Q68DX3; [1]): 4.99
- pKd (PCLO, Q9Y6V0; [1]): below the threshold
- pKd (GRASP, Q7Z6J2; [1]): below the threshold
- pKd (DLG4_2, P78352; [1]): 4.42
- pKd (GRIP1_3, Q9Y3R0; [1]): below the threshold
- pKd (APBA1_2, Q02410; [1]): below the threshold
- pKd (FRMPD1, Q5SYB0; [1]): below the threshold
- pKd (ARHGEF11, O15085; [1]): 4.09
- pKd (LIN7B, Q9HAP6; [1]): 3.77
- pKd (NHERF4_4, Q86UT5; [1]): below the threshold

B2: DLL1, O00548 (peptide)
chain: KDECVIATEV
- pKd (LIN7A, O14910; [2]): below the threshold
- pKd (MAGI2_3, Q86UL8; [2]): below the threshold
- pKd (MPP2, Q14168; [2]): below the threshold
- pKd (GRID2IP_1, A4D2P6; [2]): below the threshold
- pKd (GRIP2_5, Q9C0E4; [2]): below the threshold
- pKd (Inadl_1, Q8NI35; [2]): below the threshold
- pKd (GRIP1_7, Q9Y3R0; [2]): below the threshold
- pKd (AHNAK1, Q09666; [2]): below the threshold
- pKd (PTPN3, P26045; [2]): 4.2
- pKd (DLG2_3, Q15700; [2]): 4.13
- pKd (FRMPD4, Q14CM0; [2]): below the threshold
- pKd (Inadl_10, Q8NI35; [2]): below the threshold
- pKd (SNTG2, Q9NY99; [2]): below the threshold
- pKd (GORASP2, Q9H8Y8; [2]): below the threshold
- pKd (NHERF4_1, Q86UT5-2; [2]): below the threshold
- pKd (TX1BP3, O14907; [2]): below the threshold
- pKd (DLG1_1, Q12959; [2]): 3.72
- pKd (FRMPD2_2, Q68DX3; [2]): 3.99
- pKd (PCLO, Q9Y6V0; [2]): below the threshold
- pKd (GRASP, Q7Z6J2; [2]): 4.31
- pKd (DLG4_2, P78352; [2]): 4.39
- pKd (GRIP1_3, Q9Y3R0; [2]): below the threshold
- pKd (APBA1_2, Q02410; [2]): 3.99
- pKd (FRMPD1, Q5SYB0; [2]): below the threshold
- pKd (ARHGEF11, O15085; [2]): 4.51
- pKd (LIN7B, Q9HAP6; [2]): below the threshold
- pKd (NHERF4_4, Q86UT5; [2]): below the threshold

B3: U2AF2, P26368 (peptide)
chain: PDSYHRRDFW
- pKd (LIN7A, O14910; [3]): below the threshold
- pKd (MAGI2_3, Q86UL8; [3]): below the threshold
- pKd (MPP2, Q14168; [3]): 3.69
- pKd (GRID2IP_1, A4D2P6; [3]): below the threshold
- pKd (GRIP2_5, Q9C0E4; [3]): below the threshold
- pKd (Inadl_1, Q8NI35; [3]): below the threshold
- pKd (GRIP1_7, Q9Y3R0; [3]): below the threshold
- pKd (AHNAK1, Q09666; [3]): below the threshold
- pKd (PTPN3, P26045; [3]): below the threshold
- pKd (DLG2_3, Q15700; [3]): below the threshold
- pKd (FRMPD4, Q14CM0; [3]): 3.71
- pKd (Inadl_10, Q8NI35; [3]): below the threshold
- pKd (SNTG2, Q9NY99; [3]): 3.72
- pKd (GORASP2, Q9H8Y8; [3]): below the threshold
- pKd (NHERF4_1, Q86UT5-2; [3]): below the threshold
- pKd (TX1BP3, O14907; [3]): below the threshold
- pKd (DLG1_1, Q12959; [3]): below the threshold
- pKd (FRMPD2_2, Q68DX3; [3]): below the threshold
- pKd (PCLO, Q9Y6V0; [3]): below the threshold
- pKd (GRASP, Q7Z6J2; [3]): below the threshold
- pKd (DLG4_2, P78352; [3]): below the threshold
- pKd (GRIP1_3, Q9Y3R0; [3]): below the threshold
- pKd (APBA1_2, Q02410; [3]): below the threshold
- pKd (FRMPD1, Q5SYB0; [3]): below the threshold
- pKd (ARHGEF11, O15085; [3]): 3.6
- pKd (LIN7B, Q9HAP6; [3]): below the threshold
- pKd (NHERF4_4, Q86UT5; [3]): below the threshold

B4: ARVCF, O00192 (peptide)
chain: AKPQPVDSWV
- pKd (LIN7A, O14910; [2]): below the threshold
- pKd (MAGI2_3, Q86UL8; [2]): below the threshold
- pKd (MPP2, Q14168; [2]): below the threshold
- pKd (GRID2IP_1, A4D2P6; [2]): below the threshold
- pKd (GRIP2_5, Q9C0E4; [2]): below the threshold
- pKd (Inadl_1, Q8NI35; [2]): below the threshold
- pKd (GRIP1_7, Q9Y3R0; [2]): below the threshold
- pKd (AHNAK1, Q09666; [2]): below the threshold
- pKd (PTPN3, P26045; [2]): 4.94
- pKd (DLG2_3, Q15700; [2]): 4.06
- pKd (FRMPD4, Q14CM0; [2]): below the threshold
- pKd (Inadl_10, Q8NI35; [2]): below the threshold
- pKd (SNTG2, Q9NY99; [2]): below the threshold
- pKd (GORASP2, Q9H8Y8; [2]): 4.51
- pKd (NHERF4_1, Q86UT5-2; [2]): below the threshold
- pKd (TX1BP3, O14907; [2]): 4.92
- pKd (DLG1_1, Q12959; [2]): 4.29
- pKd (FRMPD2_2, Q68DX3; [2]): 4.25
- pKd (PCLO, Q9Y6V0; [2]): below the threshold
- pKd (GRASP, Q7Z6J2; [2]): below the threshold
- pKd (DLG4_2, P78352; [2]): 4.81
- pKd (GRIP1_3, Q9Y3R0; [2]): below the threshold
- pKd (APBA1_2, Q02410; [2]): 4.62
- pKd (FRMPD1, Q5SYB0; [2]): below the threshold
- pKd (ARHGEF11, O15085; [2]): below the threshold
- pKd (LIN7B, Q9HAP6; [2]): below the threshold
- pKd (NHERF4_4, Q86UT5; [2]): below the threshold
